Experimental data taken from publication PMC2121020 (The Journal of Cell Biology, 1996).

B1: GST fusion protein with the cytoplasmic domain of mouse CD44 (domain or fragment)
chain: NSRRRCGQKKKLVINGGNGTVEDRKPSELNGEASKSQEMVHLVNKEPSETPDQCMTADETRNLQSVDMKIGV
B2: recombinant mouse ezrin (natural protein)
chain: MPKPINVRVTTMDAELEFAIQPNTTGKQLFDQVVKTIGLREVWYFGLQYVDNKGFPTWLKLDKKVSAQEVRKENPVQFKFRAKFYPEDVAEELIQDITQKLFFLQVKDGILSDEIYCPPETAVLLGSYAVQAKFGDYNKEMHKSGYLSSERLIPQRVMDQHKLSRDQWEDRIQVWHAEHRGMLKDSAMLEYLKIAQDLEMYGINYFEIKNKKGTDLWLGVDALGLNIYEKDDKLTPKIGFPWSEIRNISFNDKKFVIKPIDKKAPDFVFYAPRLRINKRILQLCMGNHELYMRRRKPDTIEVQQMKAQAREEKHQKQLERQQLETEKKRRETVEREKEQMLREKEELMLRLQDYEQKTKRAEKELSEQIEKALQLEEERRRAQEEAERLEADRMAALRAKEELERQAQDQIKSQEQLAAELAEYTAKIALLEEARRRKEDEVEEWQHRAKEAQDDLVKTKEELHLVMTAPPPPPPPVYEPVNYHVQEGLQDEGAEPMGYSAELSSEGILDDRNEEKRITEAEKNERVQRQLLTLSNELSQARDENKRTHNDIIHNENMRQGRDKYKTLRQIRQGNTKQRIDEFEAM
B3: recombinant mouse radixin (natural protein)
chain: MPKPINVRVTTMDAELEFAIQPNTTGKQLFDQVVKTVGLREVWFFGLQYVDSKGYSTWLKLNKKVTQQDVKKENPLQFKFRAKFFPEDVSEELIQEITQRLFFLQVKEAILNDEIYCPPETAVLLASYAVQAKYGDYNKEIHKPGYLANDRLLPQRVLEQHKLTKEQWEERIQNWHEEHRGMLREDSMMEYLKIAQDLEMYGVNYFEIKNKKGTELWLGVDALGLNIYEHDDKLTPKIGFPWSEIRNISFNDKKFVIKPIDKKAPDFVFYAPRLRINKRILALCMGNHELYMRRRKPDTIEVQQMKAQAREEKHQKQLERAQLENEKKKREIAEKEKERIEREKEELMERLRQIEEQTVKAQKELEEQTRKALELEQERQRAKEEAERLDRERRAAEEAKSAIAKQAADQMKNQEQLAAELAEFTAKIALLEEAKKKKEEEATEWQHKAFAAQEDLEKTKEELKTVMSAPPPPPPPPVIPPTENEHDEQDENSAEASAELSSEGVMNHRSEEERVTETQKNERVKKQLQALSSELAQARDETKKTQNDVLHAENVKAGRDKYKTLRQIRQGNTKQRIDEFEAM
B4: recombinant mouse moesin (natural protein)
chain: MPKTISVRVTTMDAELEFAIQPNTTGKQLFDQVVKTIGLREVWFFGLQYQDTKAFSTWLKLNKKVTAQDVRKESPLLFKFRAKFYPEDVSEELIQDITQRLFFLQVKEGILNDDIYCPPETAVLLASYAVQSKYGDFNKEVHKSGYLAGDKLLPQRVLEQHKLNKDQWEERIQVWHEEHRGMLREDAVLEYLKIAQDLEMYGVNYFSIKNKKGSELWLGVDALGLNIYEQNDRLTPKIGFPWSEIRNISFNDKKFVIKPIDKKAPDFVFYAPRLRINKRILALCMGNHELYMRRRKPDTIEVQQMKAQAREEKHQKQMERALLENEKKKRELAEKEKEKIEREKEELMEKLKQIEEQTKKAQQELEEQTRRALELEQERKRAQSEAEKLAKERQEAEEAKEALLQASRDQKKTQEQLASEMAELTARISQLEMARKKKESEAVEWQQKAQMVQEDLEKTRAELKTAMSTPHVAEPAENEHDEQDENGAEASAELRADAMAKDRSEEERTTEAEKNERVQKHLKALTSELANARDESKKTANDMIHAENMRLGRDKYKTLRQIRQGNTKQRIDEFESM

Columns and labels:
[1] = molecular target: B3; assay: pull-down
recombinant mouse moesin = molecular target: B4; assay: pull-down
recombinant mouse ezrin = molecular target: B2; assay: pull-down
CD44 of BHK cells = molecular target: T1, CD44 of BHK cells (hamster (endogenous in BHK), UniProt Q60522 23-431); assay: co-sedimentation
T1 sequence: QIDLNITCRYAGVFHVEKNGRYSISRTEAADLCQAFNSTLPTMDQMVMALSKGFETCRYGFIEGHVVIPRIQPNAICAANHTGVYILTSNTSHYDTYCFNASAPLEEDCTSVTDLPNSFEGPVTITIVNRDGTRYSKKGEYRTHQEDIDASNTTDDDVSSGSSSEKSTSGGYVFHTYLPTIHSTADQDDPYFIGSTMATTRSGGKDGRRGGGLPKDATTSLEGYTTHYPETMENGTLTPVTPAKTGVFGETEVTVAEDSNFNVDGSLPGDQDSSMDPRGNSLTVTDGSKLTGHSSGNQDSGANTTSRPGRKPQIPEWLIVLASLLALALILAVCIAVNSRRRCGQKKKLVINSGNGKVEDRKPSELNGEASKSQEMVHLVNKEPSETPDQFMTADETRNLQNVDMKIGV

B1
binding result [1]: binds
Kd (recombinant mouse moesin): 9.3 ± 1.6 nM
binding result (recombinant mouse ezrin): binds

B2
amount recovered in the insoluble fraction (of about 0.8 ug added) (CD44 of BHK cells): ~0.05 µg

B3
amount recovered in the insoluble fraction (of about 0.8 ug added) (CD44 of BHK cells): ~0.05 µg

B4
amount recovered in the insoluble fraction (of about 0.8 ug added) (CD44 of BHK cells): ~0.05 µg
